Biological target: T1, LRRK2(G2019S) (Homo sapiens, UniProt Q5S007, G2019S/M2397T/R50H)
T1 construct: SF tag (FLAG + Twin-Strep); expressed in transfected cells; host or cells: HEK 293T
Assay: In cellulo phospho-Rab / LRRK2 autophosphorylation assay in HEK293T cells
Assay type: cell-based
Parameters: key to Functional Group (see FIG. 2d): Group 1: group 1: Nbs that inhibit both LRRK2 autophosphorylation and Rab10 phosphorylation in cells; Group 2: group 2: Nbs that inhibit only Rab10 phosphorylation; Group 3: group 3: Nbs that activate LRRK2 kinase activity; Group 4: group 4: Nbs that have no consistent/clear effect on LRRK2 kinase activity
Details: for LRRK2 autophosphorylation at position S1292 / influence on LRRK2 kinase activity compared to the controls / Rab10 phosphorylation at position T72: HEK 293T cells co-expressing LRRK2(G2019S), Rab29 and Nb-GFP; for influence on LRRK2 kinase activity compared to the controls: Western blot; for Functional Group (see FIG. 2d): classification by effect on in cellulo LRRK2(G2019S) kinase activity; for Rab10 phosphorylation at position T72: endogenous Rab10
In short: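 Cells co-transfected (PEI) with SF-tagged LRRK2(G2019S), FLAG-HA Rab29 and Nb-GFP fusions, lysed after 48 hrs. Western blot read LRRK2 pS1292 and endogenous Rab10 pT72 with site-specific antibodies, referenced to total LRRK2 and Rab10; ECL chemiluminescence on film.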

T1 sequence (Q5S007 whole entry R50H/G2019S/M2397T): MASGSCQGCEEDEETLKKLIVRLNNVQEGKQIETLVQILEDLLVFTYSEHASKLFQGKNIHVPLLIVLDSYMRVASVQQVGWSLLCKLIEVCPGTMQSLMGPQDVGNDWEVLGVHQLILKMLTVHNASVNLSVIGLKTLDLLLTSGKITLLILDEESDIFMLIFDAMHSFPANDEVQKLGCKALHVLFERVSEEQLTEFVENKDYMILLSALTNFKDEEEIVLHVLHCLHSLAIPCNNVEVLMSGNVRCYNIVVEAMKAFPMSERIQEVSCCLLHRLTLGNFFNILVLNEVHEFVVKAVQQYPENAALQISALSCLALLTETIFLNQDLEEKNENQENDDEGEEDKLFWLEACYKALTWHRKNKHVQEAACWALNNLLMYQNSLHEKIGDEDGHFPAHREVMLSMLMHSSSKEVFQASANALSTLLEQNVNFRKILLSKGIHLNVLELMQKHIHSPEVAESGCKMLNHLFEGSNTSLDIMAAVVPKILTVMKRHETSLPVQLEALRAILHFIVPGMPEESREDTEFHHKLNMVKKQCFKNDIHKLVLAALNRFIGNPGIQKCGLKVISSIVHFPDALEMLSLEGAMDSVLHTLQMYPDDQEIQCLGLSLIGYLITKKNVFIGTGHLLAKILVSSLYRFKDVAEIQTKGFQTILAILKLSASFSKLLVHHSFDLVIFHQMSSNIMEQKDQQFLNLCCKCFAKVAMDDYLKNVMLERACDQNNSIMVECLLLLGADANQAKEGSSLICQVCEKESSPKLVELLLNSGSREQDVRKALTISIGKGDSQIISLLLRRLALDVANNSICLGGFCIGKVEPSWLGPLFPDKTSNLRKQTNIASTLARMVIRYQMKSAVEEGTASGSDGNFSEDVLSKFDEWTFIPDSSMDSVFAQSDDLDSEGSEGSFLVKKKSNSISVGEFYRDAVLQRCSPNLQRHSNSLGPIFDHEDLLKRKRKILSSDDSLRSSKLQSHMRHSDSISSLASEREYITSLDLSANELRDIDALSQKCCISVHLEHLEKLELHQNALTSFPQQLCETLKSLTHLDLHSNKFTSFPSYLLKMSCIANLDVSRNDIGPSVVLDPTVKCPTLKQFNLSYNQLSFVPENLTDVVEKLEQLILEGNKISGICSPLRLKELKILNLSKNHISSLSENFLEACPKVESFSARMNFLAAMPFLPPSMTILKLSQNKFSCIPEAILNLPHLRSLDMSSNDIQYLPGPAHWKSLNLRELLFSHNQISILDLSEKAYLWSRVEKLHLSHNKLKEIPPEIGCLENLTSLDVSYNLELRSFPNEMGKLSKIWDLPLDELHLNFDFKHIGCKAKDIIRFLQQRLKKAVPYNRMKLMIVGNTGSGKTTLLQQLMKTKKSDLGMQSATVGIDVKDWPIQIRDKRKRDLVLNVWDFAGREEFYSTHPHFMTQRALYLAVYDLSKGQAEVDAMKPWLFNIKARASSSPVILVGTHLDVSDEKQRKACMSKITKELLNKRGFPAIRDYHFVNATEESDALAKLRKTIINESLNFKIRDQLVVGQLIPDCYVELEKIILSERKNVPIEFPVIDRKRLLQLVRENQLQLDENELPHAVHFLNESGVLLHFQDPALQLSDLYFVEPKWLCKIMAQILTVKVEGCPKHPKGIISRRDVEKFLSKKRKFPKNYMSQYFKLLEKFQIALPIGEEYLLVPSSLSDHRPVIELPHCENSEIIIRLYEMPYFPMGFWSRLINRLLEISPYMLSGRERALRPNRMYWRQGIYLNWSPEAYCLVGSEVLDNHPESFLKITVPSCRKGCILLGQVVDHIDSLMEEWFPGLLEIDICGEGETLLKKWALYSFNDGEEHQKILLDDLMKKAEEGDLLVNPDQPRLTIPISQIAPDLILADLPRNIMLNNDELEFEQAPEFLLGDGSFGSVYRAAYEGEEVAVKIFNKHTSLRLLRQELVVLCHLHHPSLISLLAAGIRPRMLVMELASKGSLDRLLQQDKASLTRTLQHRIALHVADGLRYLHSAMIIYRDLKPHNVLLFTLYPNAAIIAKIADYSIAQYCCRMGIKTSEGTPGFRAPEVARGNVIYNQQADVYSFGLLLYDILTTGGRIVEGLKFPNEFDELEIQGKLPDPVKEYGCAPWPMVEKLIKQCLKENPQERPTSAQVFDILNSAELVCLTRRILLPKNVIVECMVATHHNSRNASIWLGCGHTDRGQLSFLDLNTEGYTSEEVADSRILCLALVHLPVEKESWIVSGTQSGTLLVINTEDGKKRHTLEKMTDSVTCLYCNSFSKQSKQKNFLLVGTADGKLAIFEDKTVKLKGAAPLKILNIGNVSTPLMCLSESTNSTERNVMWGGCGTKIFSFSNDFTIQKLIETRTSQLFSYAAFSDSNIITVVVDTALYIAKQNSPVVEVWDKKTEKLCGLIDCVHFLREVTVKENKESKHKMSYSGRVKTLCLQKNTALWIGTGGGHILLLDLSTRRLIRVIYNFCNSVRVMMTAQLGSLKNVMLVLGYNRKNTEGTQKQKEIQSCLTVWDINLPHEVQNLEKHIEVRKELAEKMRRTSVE

B1: Nb42: LRRK2-specific Nanobody, SEQ ID NO: 6 (protein)
VHH: MAQVQLVESGGGLVQAGGSLRLSCAASGDVNYAVGWFRQAPRKEREFVAAINWRGDNTDYTDSVKGRFTISRDNAKNTVYLQMNSLKPEDTAVYYCAAKSAPYWYSDIAPDYWGQGTQVTVSS
modifications: Nanobody CA14259
LRRK2 autophosphorylation at position S1292: inhibit both Rab10 phosphorylation and LRRK2 autophosphorylation at S1292 | influence on LRRK2 kinase activity compared to the controls: strongly decreased LRRK2 autophosphorylation and/or Rab10 phosphorylation | Functional Group (see FIG. 2d): Group 1 | Rab10 phosphorylation at position T72: inhibit both Rab10 phosphorylation and LRRK2 autophosphorylation at S1292

B2: Nb23: LRRK2-specific Nanobody, SEQ ID NO: 3 (protein)
VHH: MAQVQLVESGGGLVQAGGSLRLSCAASGRTFSRYTMGWFRQAPGKDREFVARITTSGAVTTYADSAKGRFTISRDNAKNTVYLQMNTLKPEDTAVYYCAAGQGQLSSQSRFVDYWGQGTQVTVSS
modifications: Nanobody CA13612
LRRK2 autophosphorylation at position S1292: inhibit both Rab10 phosphorylation and LRRK2 autophosphorylation at S1292 | influence on LRRK2 kinase activity compared to the controls: strongly decreased LRRK2 autophosphorylation and/or Rab10 phosphorylation | Functional Group (see FIG. 2d): Group 1 | Rab10 phosphorylation at position T72: inhibit both Rab10 phosphorylation and LRRK2 autophosphorylation at S1292

B3: Nb1: LRRK2-specific Nanobody, SEQ ID NO: 1 (protein)
VHH: MAQVQLVESGGGLVQAGGSLRLSCVASGRIFSGNAMGWYRQAPGRQRELVAGITNGGYTNYRQFVKGRFTISRDNAKRTVYLQMNSLKPEDTAVYYCNALDREARQVDYWGQGTQVTVSS
modifications: Nanobody CA12610
LRRK2 autophosphorylation at position S1292: inhibit both Rab10 phosphorylation and LRRK2 autophosphorylation at S1292 | influence on LRRK2 kinase activity compared to the controls: strongly decreased LRRK2 autophosphorylation and/or Rab10 phosphorylation | Functional Group (see FIG. 2d): Group 1 | Rab10 phosphorylation at position T72: inhibit both Rab10 phosphorylation and LRRK2 autophosphorylation at S1292

B4: Nb22: LRRK2-specific Nanobody, SEQ ID NO: 9 (protein)
VHH: MAQVQLVESGGGLVQAGGSLRLSCAASGRTFSSYTMGWFRQAPGKEREFVAAIRWSGGSTYYADSVKGRFTISRDNAKNTVYLQMNSLKPEDTAVYYCAASDRGGFIATSGGWMDYWGKGTQVTVSS
modifications: Nanobody CA13611
influence on LRRK2 kinase activity compared to the controls: significant increase of LRRK2 kinase activity | Functional Group (see FIG. 2d): Group 3 | Rab10 phosphorylation at position T72: activating Rab10 phosphorylation in cells

B5: Nb6: LRRK2-specific Nanobody, SEQ ID NO: 2 (protein)
VHH: MAQVQLVESGGGLVQAGGSLRLSCAASGSIFSPTAMGWYRQAPGKERELVAGITSGGYTNYRNFARGRFTISRDNAKKTVYLQMNSLNPEDTAVYYCNTLTISWSWGQGTQVTVSS
modifications: Nanobody CA12618
LRRK2 autophosphorylation at position S1292: inhibit both Rab10 phosphorylation and LRRK2 autophosphorylation at S1292 | influence on LRRK2 kinase activity compared to the controls: strongly decreased LRRK2 autophosphorylation and/or Rab10 phosphorylation | Functional Group (see FIG. 2d): Group 1 | Rab10 phosphorylation at position T72: inhibit both Rab10 phosphorylation and LRRK2 autophosphorylation at S1292
